Target: 10×Histidine-tagged amino acids 1-416 of potato virus X RNA-dependent RNA polymerase, 10×His-MET_(1-416) (potato virus X)
Assay: cross-linking

Substance: 10×Histidine-tagged amino acids 1-416 of potato virus X RNA-dependent RNA polymerase, 10×His-MET_(1-416) (domain or fragment)
- stoichiometry N: > 5

— publication PMC9504981
